Values quoted from earlier work as cited in publication PMC5405074, “Receptor-Mediated Melanoma Targeting with Radiolabeled α-Melanocyte-Stimulating Hormone: Relevance of the Net Charge of the Ligand” (Frontiers in Endocrinology, 2017).

Parameters: method as in 2 sources, ref 37 = [37]; PMID 9574445; doi:10.3109/08860229809045104; 37 Kok RJ Haas M Moolenaar F de Zeeuw D Meijer DK . Drug delivery to the kidneys and the bladder with the low molecular weight protein lysozyme . Ren Fail ( 1998 ) 20 : 211 – 7 . 10.3109/0886022980904 ||| ref 38 = [38]; PMID 11578896; doi:10.1016/S0969-8051(01)00241-4; 38 Akizawa H Arano Y Mifune M Iwado A Saito Y Mukai T Effect of molecular charges on renal uptake of 111 In-DTPA-conjugated peptides . Nucl Med Biol ( 2001 ) 28 : 761 – 8 . 10.1016/S0969-8051(01)00241
Settings: urinary excretion; cited from earlier work

For “succinylated lysozyme: succinylated lysozyme, compared to the non-succinylated molecule with six amino groups”, the “Excretion compared to non-succinylated molecule (in words)” value is listed as “dramatically increased”.
